The values that follow come from the supplement of paper PMC10567573.

A short description of this data set: protein stability index of a GFP-peptide fusion (GPS, HEK-293T) (PSI 1-6); higher = more stable.
Setting [1] is: treatment: DMSO, c terminus: a fixed tail appended.
[2] abbreviates: treatment: MLN4924 1 uM, 8 h, c terminus: a fixed tail appended.
Where [3] appears, read: treatment: DMSO, c terminus: native.
The mark [4] stands for this setting: treatment: MLN4924 1 uM, 8 h, c terminus: native.

± gives the standard deviation.
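Note: 24-mer peptide tiles fused after GFP, lentivirally expressed, FACS-sorted into six equal bins by GFP/DsRed ratio, decoded by Illumina sequencing, PSI is the read-weighted mean bin number.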

Regarding KWWSDRLALFPLLPKVLQKYWCVT [ZBED1], the protein stability index runs as follows: under setting [1], 2.93 ± 1; under setting [2], 2.73 ± 0.61.

For KYESVLQLGRALTAHLYSLLQTQH [ARFIP2], the protein stability index under setting [1] worked out at 3.09 ± 0.24 and the protein stability index under setting [2] was 2.85 ± 0.092.

On to LAKDFIRRLLVKDPKRRMTIAQSL [DAPK3], for which the protein stability index is, setting by setting: under setting [1], 2.96 ± 0.3; under setting [2], 2.7 ± 0.051.

As for LALEEPVDYKQSVLNVAGEAGGKQ [SLC6A17], the protein stability index by setting is: under setting [1], 4.91 ± 0.45; under setting [2], 5.32 ± 0.14.

Consider LALSPDLSLSNATVLTRSLFLGRI [FANCE], for which the protein stability index was found to be 2.35 ± 0.36 under setting [1] and 2.24 ± 0.3 under setting [2].

Take LASYLDRVRSLETENRRLESKIRE [KRT18]: the protein stability index is 3.58 ± 0.34 under setting [1] and 3.7 ± 0.11 under setting [2].

With LATRSNEKQELQELNDRFANFIEK [PRPH], the protein stability index reads like this: under setting [1], 4.43 ± 0.25; under setting [2], 4.37 ± 0.095.

As for LCDVVLVVGAKKIYAHRVILSACS [KLHL20], the protein stability index is 2.7 ± 0.29 under setting [1] and 2.74 ± 0.39 under setting [2].

Regarding LCEYFSQHLGEYENVLAALEGLNL [NECAB1], the protein stability index reads like this: under setting [1], 2.61 ± 0.35; under setting [2], 2.63 ± 0.22.

LCIIWFSFELLVRFFACPSKATFS [KCNA3] had a protein stability index under setting [1] of 3.13 ± 0.39 and a protein stability index under setting [2] of 3.12 ± 0.58.

LDMNFSLENREEPWVKELQDSKEM [ZNF449]: the protein stability index by setting is: under setting [1], 5.31 ± 0.18; under setting [2], 5.35 ± 0.32.

Take LEAVAGALVVALWGPLQDSLEHTL [TSPAN10]: the protein stability index by setting is: under setting [1], 3.12 ± 0.95; under setting [2], 3.57 ± 0.42.

Sequence LECVKFASHCLMNHPDLAKDLTEY [PDS5B] registered a protein stability index under setting [1] of 2.62 ± 0.17 and a protein stability index under setting [2] of 2.77 ± 0.78.

LEDYINDRQYDSRGRFGELLLLLP [HNF4A]: the protein stability index runs as follows: under setting [1], 2.19 ± 0.32; under setting [2], 2.22 ± 0.2.

In the case of LEEGKHSSHEVKALGAMWKLHKSQ [TRIM9], the protein stability index came to 3.83 ± 0.22 under setting [1] and 4.22 ± 0.19 under setting [2].

Take LEKVLEENAQKKRFNQVLKNLLHA [VPS39]: the protein stability index came to 2.85 ± 0.22 under setting [1] and 2.98 ± 0.23 under setting [2].

For LENREEPWVKELQDSKEMKQLLDS [ZNF449], the protein stability index by setting is: under setting [1], 5.49 ± 0.18; under setting [2], 5.36 ± 0.23.

Take LETHFRDVSSTEEFLELSPQKLKE [GAN]: the protein stability index turned out to be 5.38 ± 0.18 under setting [1] and 5.37 ± 0.084 under setting [2].

Take LFENSLCRLTHIPAYKVSGDKNEE [ZER1]: the protein stability index runs as follows: under setting [1], 4.05 ± 0.17; under setting [2], 4.04 ± 0.12.

For the sequence LFGEKLSGTDAEETILNAFKMLDP [MYL5], the protein stability index is, setting by setting: under setting [1], 3.56 ± 0.28; under setting [2], 3.31 ± 0.35.

LFTDRMATRSTTQSNRTSRLIGKK [WEE1] displayed a protein stability index under setting [1] of 4.25 ± 0.1 and a protein stability index under setting [2] of 4.4 ± 0.063.

Regarding LFYILTFVGAIFNGLTLLILGVIG [RTN2], the protein stability index amounted to 2.7 ± 0.85 under setting [1] and 3.01 ± 0.67 under setting [2].

As to LHHKRLAKECMLQEENKSLREENK [CBY2], the protein stability index is 4.87 ± 0.39 under setting [1] and 4.89 ± 0.21 under setting [2].

LHQTIYNQACKLLSDDYEQVRSAA [INTS4]: the protein stability index under setting [1] stood at 2.96 ± 0.48 and the protein stability index under setting [2] is 3.09 ± 0.19.

For LHRGQLSLFCLEDKELLCCSCQAD [TRIM35], the protein stability index by setting is: under setting [1], 2.68 ± 0.1; under setting [2], 2.79 ± 0.31.

For the sequence LHRTFDPHFLRVPCWKITLFVIVP [MOG], the protein stability index was 3.17 ± 0.56 under setting [1] and 3.08 ± 0.63 under setting [2].

As to LIPRTMADQQARRQERKPKDRRK [NFE2L1], the protein stability index by setting is: under setting [3], 5.32 ± 0.22; under setting [4], 5.217 ± 0.028.

In the case of LKDHFSHLLGIPHSVLQIRYSGKI [IQUB], the protein stability index runs as follows: under setting [1], 2.19 ± 0.38; under setting [2], 2.06 ± 0.39.

With LKKHGPICQKTATKKRKTFDSSRQ [ZC2HC1A], the protein stability index reads like this: under setting [1], 4.09 ± 0.26; under setting [2], 4.13 ± 0.38.

Turning to LKKKQKRQAELLEKRLQEIEELER [SRPK2], the protein stability index is, setting by setting: under setting [1], 4.2 ± 0.29; under setting [2], 4.24 ± 0.49.

For the sequence LKKSSQVPRTEAPAPASSTPQEPW [PDLIM7], the protein stability index is, setting by setting: under setting [1], 4.74 ± 0.3; under setting [2], 4.76 ± 0.46.

As to LKLLNHPNVIEYYENFLEDKALMI [NEK8], the protein stability index is 2.39 ± 0.4 under setting [1] and 2.34 ± 0.23 under setting [2].

For LKPSWFDFGFAILGFAYAKEDKIM [MIA2], the protein stability index was 3.06 ± 0.61 under setting [1] and 2.34 ± 0.53 under setting [2].

On to LKQRTVIEMFKSITHSTVGSKGEK [EHMT1], for which the protein stability index by setting is: under setting [1], 3.16 ± 0.18; under setting [2], 3.17 ± 0.33.

Turning to LKRRFSRLENRYEALAKQVASEMR [DAPK3], the protein stability index worked out at 2.47 ± 0.26 under setting [1] and 2.69 ± 0.17 under setting [2].

LKTSEVTQHLPRECLPENLGGYVK [PTPN9] came in with a protein stability index under setting [1] of 3.97 ± 0.38 and a protein stability index under setting [2] of 3.73 ± 0.56.

As for LKYIGMAKREINKLLKQKEKKNE [ARL6IP1], the protein stability index was found to be 3.7 ± 0.17 under setting [3] and 3.83 ± 0.31 under setting [4].

For LLCPLCQEEEQAETPMAPVPLGPL [TRIM15], the protein stability index worked out at 3.38 ± 0.67 under setting [1] and 3.73 ± 0.35 under setting [2].

For the sequence LLDQIREGAQLKKVEQNSRPVSCS [WASL], the protein stability index worked out at 4.852 ± 0.026 under setting [1] and 4.63 ± 0.24 under setting [2].

On to LLFAGSSLASQVHAAAVNGDKGAL [INVS], for which the protein stability index under setting [1] was 2.61 ± 0.34 and the protein stability index under setting [2] amounted to 2.76 ± 0.21.

Turning to LLFKDLIKLFACYNDGVINLLEKF [SNAP91], the protein stability index is, setting by setting: under setting [1], 3.04 ± 0.34; under setting [2], 2.81 ± 0.87.

As to LLFPEEEATNGREGLLRFSSWPFS [AUP1], the protein stability index runs as follows: under setting [1], 2.58 ± 0.23; under setting [2], 2.51 ± 0.21.

As to LLGEIDLEKESDTPLQQVSIEEIL [LSM1], the protein stability index reads like this: under setting [1], 4.97 ± 0.16; under setting [2], 4.93 ± 0.27.

For LLGGDLRYHLQQNVHFKEETVKLF [STK32A], the protein stability index came out at 2.36 ± 0.41 under setting [1] and 2.6 ± 0.27 under setting [2].

As to LLIDFAYTSQITVEEGNVQTLLPA [KLHL20], the protein stability index is 2.29 ± 0.5 under setting [1] and 1.94 ± 0.12 under setting [2].

Turning to LLKPIPEYSPEEESEPPAPNIRNM [TRAF3IP2], the protein stability index is, setting by setting: under setting [1], 5.12 ± 0.11; under setting [2], 5.22 ± 0.37.

As for LLQCLEDLDANLRKLNSRLFVIRG [CRY1], the protein stability index by setting is: under setting [1], 2.67 ± 0.25; under setting [2], 2.68 ± 0.29.

With LLQTEPQNNQAKELERLIDKAMKK [FIS1], the protein stability index runs as follows: under setting [1], 3.99 ± 0.19; under setting [2], 4.27 ± 0.17.

Consider LLRQLGRDAGATPSAAGAPASAPG [ANKRD9], for which the protein stability index under setting [1] amounted to 4.12 ± 0.4 and the protein stability index under setting [2] came out at 4.36 ± 0.15.

For LLSIIATVMILPVTHTEISPEQQF [TMEM175], the protein stability index came out at 3.47 ± 0.95 under setting [1] and 3.02 ± 0.35 under setting [2].

LLWRKQLFCDVTLTAQGQQFHCHK [KLHL14]: the protein stability index by setting is: under setting [1], 2.23 ± 0.41; under setting [2], 1.99 ± 0.23.

Regarding LMDEGASSEKKRQSSADGSQPPKK [RBBP5], the protein stability index worked out at 5.56 ± 0.36 under setting [1] and 5.53 ± 0.24 under setting [2].

Turning to LMMRMGILGRGLQEYQLPYQRVLP [TCAP], the protein stability index reads like this: under setting [1], 2.48 ± 0.4; under setting [2], 2.28 ± 0.25.
